Assay [1] has as its target IL2Rβ and common γ chain expressed on 32Dβ cells. Nature of the assay: cell-based or functional assay.
Assay [2] has as its target TGFβ1 (R&D systems) (UniProt P01137). Nature of the assay: cell-based or functional assay.
Chain of UniProt P01137 (P01137 279-390 limits assumed): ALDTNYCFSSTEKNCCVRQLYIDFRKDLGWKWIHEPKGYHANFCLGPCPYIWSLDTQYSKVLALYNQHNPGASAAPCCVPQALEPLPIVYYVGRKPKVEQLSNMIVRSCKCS

As for “recombinant IL-15 (from UniProt P40933 49-162) (ligand)”, the EC50 of 32Dβ cell proliferation (WST1, absorbance at 450 nM) in assay [1] turned out to be 0.0106 nM.
As for TGFR-Fc (R&D Systems) (Fc fusion), in assay [2], the IC50 for TGFβ1 activity in HEK-Blue TGFβ cells (QUANTI-Blue OD at 620-655 nM) turned out to be 0.461 nM.
